The values below come from US20200181210A1, “MODIFIED CYCLIC PEPTIDES AND THERAPEUTIC USE THEREOF” (THE BROAD INSTITUTE, INC., priority 2017, published 2020).

In the data set the test system is trypsin. The data set is described as follows: trypsin protease digestion resistance of cyclotides (SDS-PAGE).

Protocol: Protease conditions were tested on cyclotides and variants. Samples were subjected to 10 μg of trypsin at 37° C. for up to 24 hours. […] Four elutions were collected in 200 μL fractions. Protein content of bound/eluted material was quantified based upon detection of fluorescently labeled lysines within bound/eluted sequences.
The cyclotides and empty yeast vector were then subjected to 10 μg trypsin protease digestion at 37° C. for up to 24 hours.

For the substance “pYES-MCoTI: native (natural) MCoTI cyclotide expressed in yeast from the pYES vector (cyclo(GGVCPKILQRCRRDSDCPGACICRGNGYCGSGSD); also: cyclic cystine knot, three disulfides CysI-IV, II-V, III-VI)”, the “resistance to trypsin digestion” value (10 μg trypsin, 37° C., up to 24 hours, SDS-PAGE) is on record as “resistant to trypsin digestion”. In addition, the resistance towards trypsin result (trypsin exposure up to 18 hrs (FIG. 28)) is listed as “resistance towards trypsin up to 18 hrs with no change in levels”.
